Experimental data as given in article doi:10.1101/2021.03.29.437455.

Tests used:
[1] = target: polo-like kinase 1 (PLK1) PBD, 345-603 (UniProt P53350); test: isothermal titration calorimetry; settings: reference: unphosphorylated peptide PNTSSPS; sites S379
[2] = target: PLK1 polo-box domain (PBD), PLK1 residue 345-603 (UniProt P53350); test: ITC
[3] = target: GST-EBNA2 446-474 S457A/T465V (Epstein-Barr virus) (UniProt P12978); test: pull-down; settings: remark: other sources report otherwise

EBNA2 (EBV nuclear antigen 2) (from UniProt P12978) phosphopeptide PNTSpSPS
KD [1]: 8.19 µM

EBNA2 phospho-heptapeptide PNTSpSPS
Kd [2]: 8.19 µM
stoichiometry N [2]: 1

histone acetylase and co-activator p300, Q09472 1-2414
fold change of p300 binding against wt [3]: 8 to 9 fold
